Measurements as given in US20260035464A1 (STAIDSON BIOPHARMA, published 2026).

Tests used:
[1] = molecular target: T1, human BTLA (Uniprot Q7Z6A9) expressed on cells (human, UniProt Q7Z6A9 31-289); assay: flow cytometry blocking assay on huBTLA-overexpressing Expi293 cells, antibody titrated, soluble human HVEM-mouse IgG2a Fc detected
T1 construct: whole, on cells; also called huBTLA-overexpressing Expi293 cells
Experimental: (§1) Expi293 cells stably overexpressing huBTLA were incubated with chimeric anti-BTLA antibody 83F2 or 86B7 for 30 minutes at 4° C. The cells were washed, and then incubated with human HVEM-mouse IgG2a Fc recombinant protein (Acro Biosystems, cat #HVM-H5255) at […] concentration for 20 minutes at 4° C. The human HVEM bindings were detected by goat anti-mouse Alexa 488 secondary antibody (ThermoFisher, cat #A-11029). Cells were washed and acquired by flow cytometry with Attune. Data were analyzed with FlowJo software. BTLA binding is represented as MFI.
FACS based blocking assays of humanized anti-BTLA antibodies were performed as described above in Example 3.

[2] = molecular target: T1, human BTLA (Uniprot Q7Z6A9) expressed …; assay: cell-based or functional assay
[3] = molecular target: T1, human BTLA (Uniprot Q7Z6A9) expressed …; assay: cell-based or functional assay; remark: listed apart in the source
[4] = molecular target: T2, huBTLA as coated in the binding ELISA of Example 3 (tag not stated) (human, UniProt Q7Z6A9 31-157); assay: ELISA, huBTLA coated at 0.333 ug/mL, anti-human IgG Fc-AP detection
T2 construct: Detection was with anti-human IgG Fc
T2 sequence: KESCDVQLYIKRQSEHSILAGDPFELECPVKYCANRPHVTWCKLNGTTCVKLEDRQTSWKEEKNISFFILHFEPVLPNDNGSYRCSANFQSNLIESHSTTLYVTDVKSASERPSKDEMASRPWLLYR
Experimental: (§2) BTLA binding of purified recombinant chimeric antibodies by ELISA: The huBTLA and rhesus monkey BTLA antigen binding ELISA was performed on the purified recombinant chimeric antibodies. Briefly, 384-well, clear flat bottom high binding plates (Corning, cat #3700) were coated overnight at 4° C. with 0.333 μg/mL of huBTLA or rhesus monkey BTLA in PBS. The following purified process was performed as described in ELISA binding assay in Example 2, except that the secondary antibody was goat anti human IgG Fc-AP (Southern Biotech, cat #2014-04).

[5] = molecular target: T2, huBTLA as coated in the binding ELISA …; assay: ELISA, plate coated with huBTLA, detection with goat anti-human IgG Fc-AP, OD405
Experimental: as §2

[6] = molecular target: T3, human BTLA extracellular domain with C-terminal 10xHis tag (human, UniProt Q7Z6A9 31-157); assay: BLI (Octet RED96), antibody captured on AHC biosensor, His-tag-huBTLA in solution, 1:1 model
T3 construct: also called HuBTLA-His; His-tag-huBTLA
T3 sequence: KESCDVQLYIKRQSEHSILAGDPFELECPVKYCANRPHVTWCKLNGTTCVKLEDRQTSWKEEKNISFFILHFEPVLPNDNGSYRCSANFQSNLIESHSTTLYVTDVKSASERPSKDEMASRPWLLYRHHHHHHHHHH
Experimental: The following kinetic assay was performed using anti-human IgG Fc capture (AHC) biosensors (ForteBio) in kinetics buffer (PBS, 0.1% Tween-20 and 1% bovine serum albumin): (a) antibody (2 μg/mL) for 300 sec, (b) baseline for 120 sec, (c) association with purified His-tag-huBTLA (2.5, 0.5 and 0 μg/mL) and His-tag-rhesus monkey BTLA (Sino Biologcal, cat #90250-C08H) (2.5, 0.5 and 0 μg/mL) for 420 sec and (d) dissociation for 1200 sec. Data fitting and analysis was performed with Octet data analysis software 8.0 (ForteBio) using a 1:1 binding model after Savitzky-Golay filtering.

[7] = molecular target: T4, human BTLA extracellular domain with C-terminal mouse IgG2a Fc tag (human; mouse, UniProt Q7Z6A9 31-157); assay: blocking ELISA, huBTLA-mIgG2a Fc coated; competitor huHVEM-His (2 ug/ml)
T4 construct: also called huBTLA with mIgG2a Fc tag; not shown: mouse IgG2a Fc, C-terminal
T4 sequence: T2 sequence
Experimental: HVEM blocking by purified recombinant chimeric antibodies by ELISA: Human HVEM (huHVEM) blocking ELISA was performed on purified recombinant chimeric anti-BTLA antibodies. Briefly, 384-well, clear flat bottom high binding plates (Corning, cat #3700) were coated overnight at 4° C. with 0.333 μg/mL purified huBTLA with mIgG2a Fc tag in PBS (coating solution). After removing the coating solution, the plates were blocked by adding blocking buffer and incubated at 37° C. for 1 hour. Plates were then washed 3 times with wash buffer. Serial dilution of purified chimeric antibodies in PBS were added to individual well followed by incubation at 37° C. for 1 hour. Plates were washed 3 times with wash buffer. Then 30 μL per well of 2 μg/ml human HVEM with His tag (Sino Biological, cat #10334-H08H) in assay buffer was added into the reaction and incubated for 1 hour. Plates were washed 3 times with wash buffer. Then 30 μL per well of mouse anti-his-AP (Southern Biotech, cat: 4603-04) at 1:500 dilution in ELISA diluent was added, and incubated at 37° C. for 30 min, then the plates were washed 5 times with wash buffer and developed for 30 minutes with 30 μL per well of pNPP substrate. Plates were analyzed with a Bio-TEK at 405 nm. The blocking IC₅₀ value represents the antibody concentration that inhibited 50% of huHVEM binding to coated human BTLA.

[8] = molecular target: T1, human BTLA (Uniprot Q7Z6A9) expressed …; assay: flow cytometry blocking on huBTLA-overexpressing Expi293 cells; competitor human HVEM-mouse IgG2a Fc
Experimental: as §1

[9] = molecular target: T5, extracellular domain of human BTLA with FAS, expressed on Jurkat cells (human, UniProt Q7Z6A9 31-157; P25445 174-335, limits assumed); assay: cell-based or functional assay
T5 sequence (looked up): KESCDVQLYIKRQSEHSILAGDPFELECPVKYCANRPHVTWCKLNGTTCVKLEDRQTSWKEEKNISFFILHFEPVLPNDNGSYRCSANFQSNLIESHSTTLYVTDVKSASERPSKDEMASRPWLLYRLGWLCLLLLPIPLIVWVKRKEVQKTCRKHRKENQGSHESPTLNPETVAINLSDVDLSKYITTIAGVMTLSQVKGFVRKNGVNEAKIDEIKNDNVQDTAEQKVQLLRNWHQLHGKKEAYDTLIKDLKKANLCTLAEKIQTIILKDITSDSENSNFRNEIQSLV

IC50 (read off the curve) [1]: ~0.4 nM | EC50 of recovery of IL-2 production, Raji-HVEM/primary human T cell coculture [2]: 1.68 nM | EC50 of recovery of IL-2 production, Raji-HVEM/Jurkat-BTLA coculture [3]: 0.554 nM | EC50 [4]: 0.0511 nM | EC50 (read off the curve) [5]: ~0.4 nM | Kd [6]: 0.257 nM | koff [6]: 9.98e-05 s⁻¹ | kon [6]: 389000 M⁻¹ s⁻¹ | IC50 [7]: 1.02 nM | IC50 [8]: 0.259 nM | EC50 of inhibition of huHVEM-Fc-induced apoptosis, Jurkat-huBTLA-FAS cells (ATP luminescence) [9]: 0.109 nM
B1: chimeric anti-BTLA antibody 86B7 (antibody, V domains shown)
VH: QVTLKESGPGILQPSQTLSLTCSFSGFSLSTFGMGVSWIRQPSGKGLEWLAHIYWDDDKRFNPSLKSRLSISKDTSNNQVFLKITTVDTADTATYYCARGNWDGETYFDYWGQGTTLTVSS
VL: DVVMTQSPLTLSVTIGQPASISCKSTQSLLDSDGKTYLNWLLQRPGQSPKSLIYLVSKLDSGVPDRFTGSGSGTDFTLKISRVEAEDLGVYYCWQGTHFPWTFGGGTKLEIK
